Data taken from the Immune Epitope Database (IEDB).

Key:
[1] = biological target: HLA-B*51:01; experiment: IEDB peptide-MHC binding, purified MHC/competitive/fluorescence; filed as Kd, often an IC50 or EC50 that approximates it; ≥ and ≤ were set here for values at or beyond the usual limits of such assays
[2] = biological target: HLA-A*02:12; experiment: as above
[3] = biological target: HLA-A*02:11; experiment: as above
[4] = biological target: HLA-A*02:03; experiment: as above
[5] = biological target: HLA-A*02:19; experiment: as above
[6] = biological target: HLA-B*18:01; experiment: as above
[7] = biological target: HLA-B*46:01; experiment: as above
[8] = biological target: HLA-A*26:01; experiment: as above
[9] = biological target: HLA-B*15:01; experiment: as above
[10] = biological target: HLA-A*29:02; experiment: as above
[11] = biological target: HLA-B*27:03; experiment: as above
[12] = biological target: HLA-A*03:01; experiment: as above
[13] = biological target: HLA-B*39:01; experiment: as above
[14] = biological target: HLA-B*57:01; experiment: as above
[15] = biological target: HLA-A*24:03; experiment: as above
[16] = biological target: HLA-A*02:01; experiment: as above
[17] = biological target: HLA-B*07:02; experiment: as above; conditions: source organism: Human herpesvirus 4 strain B95-8
[18] = biological target: HLA-B*51:01; experiment: IEDB peptide-MHC binding, purified MHC/direct/fluorescence; filed as Kd, often an IC50 or EC50 that approximates it; ≥ and ≤ were set here for values at or beyond the usual limits of such assays; conditions: source organism: human gammaherpesvirus 4
[19] = biological target: HLA-A*68:02; experiment: IEDB peptide-MHC binding, purified MHC/competitive/radioactivity; filed as Kd, often an IC50 or EC50 that approximates it; ≥ and ≤ were set here for values at or beyond the usual limits of such assays; conditions: source organism: Vaccinia virus WR
[20] = biological target: HLA-A*02:03; experiment: as above; conditions: source organism: Vaccinia virus WR
[21] = biological target: HLA-A*02:06; experiment: as above; conditions: source organism: Vaccinia virus WR
[22] = biological target: HLA-A*02:02; experiment: as above; conditions: source organism: Vaccinia virus WR
[23] = biological target: HLA-C*03:03; experiment: IEDB peptide-MHC binding, purified MHC/direct/fluorescence; filed as Kd, often an IC50 or EC50 that approximates it; ≥ and ≤ were set here for values at or beyond the usual limits of such assays; conditions: source organism: Vaccinia virus WR
[24] = biological target: HLA-A*30:01; experiment: IEDB peptide-MHC binding, purified MHC/competitive/fluorescence; filed as Kd, often an IC50 or EC50 that approximates it; ≥ and ≤ were set here for values at or beyond the usual limits of such assays; conditions: source organism: Vaccinia virus WR
[25] = biological target: HLA-B*15:17; experiment: as above; conditions: source organism: Vaccinia virus WR
[26] = biological target: HLA-A*02:06; experiment: as above; conditions: source organism: Vaccinia virus WR
[27] = biological target: HLA-B*27:05; experiment: IEDB peptide-MHC binding, purified MHC/direct/fluorescence; filed as Kd, often an IC50 or EC50 that approximates it; ≥ and ≤ were set here for values at or beyond the usual limits of such assays; conditions: source organism: Camelpox virus M-96
[28] = biological target: HLA-B*58:01; experiment: as above; conditions: source organism: Camelpox virus M-96
[29] = biological target: HLA-B*48:01; experiment: as above; conditions: source organism: Camelpox virus M-96
[30] = biological target: HLA-A*69:01; experiment: as above; conditions: source organism: Camelpox virus M-96
[31] = biological target: HLA-A*26:01; experiment: as above; conditions: source organism: Camelpox virus M-96
[32] = biological target: HLA-B*40:01; experiment: as above; conditions: source organism: Camelpox virus M-96
[33] = biological target: HLA-A*01:01; experiment: as above; conditions: source organism: Camelpox virus M-96
[34] = biological target: HLA-A*11:01; experiment: as above; conditions: source organism: Camelpox virus M-96
[35] = biological target: HLA-A*31:01; experiment: as above; conditions: source organism: Camelpox virus M-96
[36] = biological target: HLA-A*03:01; experiment: as above; conditions: source organism: Camelpox virus M-96
[37] = biological target: HLA-B*57:01; experiment: as above; conditions: source organism: Camelpox virus M-96
[38] = biological target: HLA-A*02:01; experiment: as above; conditions: source organism: Camelpox virus M-96
[39] = biological target: HLA-A*11:01; experiment: IEDB peptide-MHC binding, purified MHC/competitive/fluorescence; filed as Kd, often an IC50 or EC50 that approximates it; ≥ and ≤ were set here for values at or beyond the usual limits of such assays; conditions: source organism: Influenza A virus (A/swine/Scotland/410440/94(H1N2))
[40] = biological target: HLA-A*68:02; experiment: as above; conditions: source organism: Vaccinia virus WR
[41] = biological target: HLA-A*31:01; experiment: as above; conditions: source organism: Vaccinia virus WR
[42] = biological target: HLA-B*18:01; experiment: IEDB peptide-MHC binding, purified MHC/direct/fluorescence; filed as Kd, often an IC50 or EC50 that approximates it; ≥ and ≤ were set here for values at or beyond the usual limits of such assays; conditions: source organism: Camelpox virus M-96
[43] = biological target: HLA-B*46:01; experiment: as above; conditions: source organism: Camelpox virus M-96
[44] = biological target: HLA-B*15:01; experiment: as above; conditions: source organism: Camelpox virus M-96
[45] = biological target: HLA-B*07:02; experiment: as above; conditions: source organism: Camelpox virus M-96
[46] = biological target: HLA-B*27:05; experiment: IEDB peptide-MHC binding, purified MHC/competitive/fluorescence; filed as Kd, often an IC50 or EC50 that approximates it; ≥ and ≤ were set here for values at or beyond the usual limits of such assays; conditions: source organism: Influenza A virus (A/swine/Hong Kong/81/1978(H3N2))
[47] = source organism: Yersinia pestis Antiqua
[48] = source organism: Vibrio cholerae 2740-80
[49] = source organism: Vaccinia virus WR

## PLTNQRYRV
[1]; [47]
  Kd: ≥ 20 µM
[2]; [47]
  Kd: ≥ 20 µM
[3]; [47]
  Kd: ≥ 20 µM
[4]; [47]
  Kd: ≥ 20 µM
[5]; [47]
  Kd: 0.797 µM
[6]; [47]
  Kd: ≥ 20 µM
[7]; [47]
  Kd: ≥ 20 µM
[8]; [47]
  Kd: ≥ 20 µM
[9]; [47]
  Kd: ≥ 20 µM
[10]; [47]
  Kd: ≥ 20 µM
[11]; [47]
  Kd: ≥ 20 µM
[12]; [47]
  Kd: ≥ 20 µM
[13]; [47]
  Kd: ≥ 20 µM
[14]; [47]
  Kd: ≥ 20 µM
[15]; [47]
  Kd: ≥ 20 µM
[16]; [47]
  Kd: ≥ 20 µM

## HPVGEADYFEY
[17]
  Kd: ≥ 20 µM
[18]
  Kd: ≥ 20 µM

## YIYGIPLSL
[19]
  Kd: 1.87 µM
[20]
  Kd: 13.1 µM
[21]
  Kd: 11.5 µM
[22]
  Kd: 0.46 µM
[23]
  Kd: ≤ 0.001 µM

## YEPEMQAQV
[1]; [48]
  Kd: ≥ 20 µM
[2]; [48]
  Kd: ≥ 20 µM
[3]; [48]
  Kd: ≥ 20 µM
[4]; [48]
  Kd: ≥ 20 µM
[5]; [48]
  Kd: 0.845 µM
[6]; [48]
  Kd: ≥ 20 µM
[7]; [48]
  Kd: ≥ 20 µM
[8]; [48]
  Kd: ≥ 20 µM
[9]; [48]
  Kd: ≥ 20 µM
[10]; [48]
  Kd: ≥ 20 µM
[11]; [48]
  Kd: ≥ 20 µM
[12]; [48]
  Kd: ≥ 20 µM
[13]; [48]
  Kd: ≥ 20 µM
[14]; [48]
  Kd: ≥ 20 µM
[15]; [48]
  Kd: ≥ 20 µM
[16]; [48]
  Kd: ≥ 20 µM

## FVHTLLKTY
[24]
  Kd: ≥ 20 µM
[6]; [49]
  Kd: ≥ 20 µM
[25]
  Kd: 0.0554 µM
[9]; [49]
  Kd: 0.308 µM
[26]
  Kd: 2.97 µM
[27]
  Kd: ≥ 20 µM
[28]
  Kd: ≥ 20 µM
[29]
  Kd: ≥ 20 µM
[30]
  Kd: ≥ 20 µM
[31]
  Kd: 0.0733 µM
[32]
  Kd: ≥ 20 µM
[33]
  Kd: ≥ 20 µM
[34]
  Kd: ≥ 20 µM
[35]
  Kd: ≥ 20 µM
[36]
  Kd: ≥ 20 µM
[37]
  Kd: ≥ 20 µM
[38]
  Kd: ≥ 20 µM

## KVYKTYFEK
[39]
  Kd: 0.0047 µM

## LTFLHTLYK
[40]
  Kd: 1.09 µM
[25]
  Kd: 0.226 µM
[26]
  Kd: 1.09 µM
[41]
  Kd: 0.224 µM
[27]
  Kd: ≥ 20 µM
[28]
  Kd: ≥ 20 µM
[29]
  Kd: ≥ 20 µM
[42]
  Kd: ≥ 20 µM
[30]
  Kd: ≥ 20 µM
[43]
  Kd: ≥ 20 µM
[44]
  Kd: ≥ 20 µM
[32]
  Kd: ≥ 20 µM
[33]
  Kd: ≥ 20 µM
[34]
  Kd: 0.104 µM
[36]
  Kd: 0.16 µM
[45]
  Kd: ≥ 20 µM
[37]
  Kd: ≥ 20 µM
[38]
  Kd: ≥ 20 µM

## GRIQDLEKY
[46]
  Kd: 0.112 µM
